T1: Cynomolgous monkey PSMA, full length (Macaca fascicularis, UniProt Q04609 1-750 (human entry))
T1 construct: On transfected HEK293F cells; also called cyno PSMA; EHH56646.1
T1 chain: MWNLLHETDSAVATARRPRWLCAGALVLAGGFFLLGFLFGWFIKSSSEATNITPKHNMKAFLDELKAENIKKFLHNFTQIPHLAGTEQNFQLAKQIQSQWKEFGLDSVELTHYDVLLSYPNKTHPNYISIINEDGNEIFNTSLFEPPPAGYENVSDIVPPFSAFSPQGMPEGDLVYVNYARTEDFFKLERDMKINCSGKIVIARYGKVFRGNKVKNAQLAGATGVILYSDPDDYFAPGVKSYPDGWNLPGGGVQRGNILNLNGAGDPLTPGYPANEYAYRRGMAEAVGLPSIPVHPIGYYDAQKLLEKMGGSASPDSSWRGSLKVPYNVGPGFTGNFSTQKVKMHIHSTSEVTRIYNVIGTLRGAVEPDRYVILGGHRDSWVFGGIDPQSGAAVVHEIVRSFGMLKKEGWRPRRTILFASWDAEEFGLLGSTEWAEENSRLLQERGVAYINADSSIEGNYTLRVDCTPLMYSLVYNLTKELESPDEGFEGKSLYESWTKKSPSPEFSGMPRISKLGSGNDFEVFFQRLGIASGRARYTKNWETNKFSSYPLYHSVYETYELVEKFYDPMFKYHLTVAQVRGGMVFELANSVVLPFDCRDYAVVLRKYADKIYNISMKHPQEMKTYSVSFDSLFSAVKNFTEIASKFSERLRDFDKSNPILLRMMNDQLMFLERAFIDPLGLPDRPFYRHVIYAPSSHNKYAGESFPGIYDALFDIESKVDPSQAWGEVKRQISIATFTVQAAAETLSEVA

T2: chimpanzee PSMA, full length (Pan troglodytes, UniProt Q04609 1-750 (human entry))
T2 construct: On transfected HEK293F cells; also called chimp PSMA; H2Q3K5_PANTR
T2 chain: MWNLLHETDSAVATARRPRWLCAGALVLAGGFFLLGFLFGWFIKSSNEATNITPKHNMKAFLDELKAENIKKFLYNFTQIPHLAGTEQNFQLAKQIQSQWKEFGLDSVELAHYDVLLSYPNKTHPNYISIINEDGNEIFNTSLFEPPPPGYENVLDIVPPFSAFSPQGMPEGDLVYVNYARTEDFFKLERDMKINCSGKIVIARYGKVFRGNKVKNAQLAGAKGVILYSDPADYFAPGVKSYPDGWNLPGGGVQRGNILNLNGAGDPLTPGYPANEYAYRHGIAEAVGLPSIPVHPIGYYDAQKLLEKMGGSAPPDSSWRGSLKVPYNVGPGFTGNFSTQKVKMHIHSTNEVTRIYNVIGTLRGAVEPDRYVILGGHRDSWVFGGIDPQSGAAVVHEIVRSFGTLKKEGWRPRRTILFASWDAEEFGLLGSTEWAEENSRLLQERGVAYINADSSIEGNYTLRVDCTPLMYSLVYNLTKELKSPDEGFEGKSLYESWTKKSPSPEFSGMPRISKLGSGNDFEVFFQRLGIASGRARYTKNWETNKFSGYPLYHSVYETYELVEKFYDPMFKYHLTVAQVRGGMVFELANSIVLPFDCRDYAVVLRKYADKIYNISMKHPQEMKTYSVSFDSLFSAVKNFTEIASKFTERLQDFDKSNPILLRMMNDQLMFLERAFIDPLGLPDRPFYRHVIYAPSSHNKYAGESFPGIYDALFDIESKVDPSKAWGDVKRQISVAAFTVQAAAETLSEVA

B1: PS3B27 (bispecific antibody, human IgG4 S228P, kappa, lambda, F234A L235A)
heavy 1: not shown
light 1: not shown
heavy 2: EVQLVESGGGLVQPGGSLRLSCAASGFTFNTYAMNWVRQAPGKGLEWVARIRSKYNNYATYYAASVKGRFTISRDDSKNSLYLQMNSLKTEDTAVYYCARHGNFGNSYVSWFAYWGQGTLVTVSSASTKGPSVFPLAPCSRSTSESTAALGCLVKDYFPEPVTVSWNSGALTSGVHTFPAVLQSSGLYSLSSVVTVPSSSLGTKTYTCNVDHKPSNTKVDKRVESKYGPPCPPCPAPEAAGGPSVFLFPPKPKDTLMISRTPEVTCVVVDVSQEDPEVQFNWYVDGVEVHNAKTKPREEQFNSTYRVVSVLTVLHQDWLNGKEYKCKVSNKGLPSSIEKTISKAKGQPREPQVYTLPPSQEEMTKNQVSLTCLVKGFYPSDIAVEWESNGQPENNYKTTPPVLDSDGSFLLYSKLTVDKSRWQEGNVFSCSVMHEALHNHYTQKSLSLSLGK
light 2: QTVVTQEPSLTVSPGGTVTLTCRSSTGAVTTSNYANWVQQKPGQAPRGLIGGTNKRAPGTPARFSGSLLGGKAALTLSGVQPEDEAEYYCALWYSNLWVFGGGTKLTVLGQPKAAPSVTLFPPSSEELQANKATLVCLISDFYPGAVTVAWKADSSPVKAGVETTTPSKQSNNKYAASSYLSLTPEQWKSHRSYSCQVTHEGSTVEKTVAPTECS
notes: IgG4 PAA; PSMA arm chains first, then CD3 arm (F405L, R409K); also called PSMB127 x CD3B219; PS2B27
B2: PS3B24 (bispecific antibody, human IgG4 S228P, kappa, lambda, F234A L235A)
heavy 1: not shown
light 1: not shown
heavy 2: B1 heavy 2
light 2: B1 light 2
notes: IgG4 PAA; PSMA arm chains first, then CD3 arm (F405L, R409K); also called PSMB124 x CD3B219
B3: PS3B30 (bispecific antibody, human IgG4 S228P, kappa, lambda, F234A L235A)
heavy 1: not shown
light 1: not shown
heavy 2: B1 heavy 2
light 2: B1 light 2
notes: IgG4 PAA; PSMA arm chains first, then CD3 arm (F405L, R409K); also called PSMB130 x CD3B219
B4: PS3B23 (bispecific antibody, human IgG4 S228P, kappa, lambda, F234A L235A)
heavy 1: not shown
light 1: not shown
heavy 2: B1 heavy 2
light 2: B1 light 2
notes: IgG4 PAA; PSMA arm chains first, then CD3 arm (F405L, R409K); also called PSMB123 x CD3B219
B5: PS3B22 (bispecific antibody, human IgG4 S228P, kappa, lambda, F234A L235A)
heavy 1: not shown
light 1: DIQMTQSPSSLSASVGDRVTITCRASQSIDRWLNWYQQKPGKAPKLLIYAASSLQSGVPSRFSGSGSGTDFTLTISSLQPEDFATYYCQQSPRYPLTFGQGTKVEIKRTVAAPSVFIFPPSDEQLKSGTASVVCLLNNFYPREAKVQWKVDNALQSGNSQESVTEQDSKDSTYSLSSTLTLSKADYEKHKVYACEVTHQGLSSPVTKSFNRGEC
heavy 2: B1 heavy 2
light 2: B1 light 2
notes: IgG4 PAA; PSMA arm chains first, then CD3 arm (F405L, R409K); also called PSMB122 x CD3B219; PSB22
B6: PS3B19 (bispecific antibody, human IgG4 S228P, kappa, lambda, F234A L235A)
heavy 1: not shown
light 1: not shown
heavy 2: B1 heavy 2
light 2: B1 light 2
notes: IgG4 PAA; PSMA arm chains first, then CD3 arm (F405L, R409K); also called PSMB119 x CD3B219
B7: PS3B28 (bispecific antibody, human IgG4 S228P, kappa, lambda, F234A L235A)
heavy 1: not shown
light 1: not shown
heavy 2: B1 heavy 2
light 2: B1 light 2
notes: IgG4 PAA; PSMA arm chains first, then CD3 arm (F405L, R409K); also called PSMB128 x CD3B219
B8: PS3B20 (bispecific antibody, human IgG4 S228P, kappa, lambda, F234A L235A)
heavy 1: not shown
light 1: not shown
heavy 2: B1 heavy 2
light 2: B1 light 2
notes: IgG4 PAA; PSMA arm chains first, then CD3 arm (F405L, R409K); also called PSMB120 x CD3B219

How the values were obtained:
[1] = molecular target: T1, Cynomolgous monkey PSMA, full length; assay: FACS, whole cell binding, cyno PSMA HEK
Procedure: (§1) PSMA×CD3 bispecific antibodies were tested for binding to PSMA positive cell lines LNCAP, human PSMA-HEK, Chimpanzee-PSMA-HEK and Cynomolgous monkey PSMA-HEK. To assess the binding capabilities of the PSMA bispecific antibodies, the cell-binding assay was utilized (described previously). Briefly, PSMA expressing tumor cells are bound by bispecific antibodies at known concentrations and the bound antibody is detected by an anti-human kappa light chain PE conjugated detection reagent (Invitrogen). The Mean Fluorescents Intensity (MFI) is the measure of bound bispecific antibody. The MFI is converted to a relative EC₅₀. EC₅₀ is a commonly used dose-response curve, where the half maximal effective concentration or the EC₅₀ point is defined as the inflection point of the curve. EC₅₀ s were determined by measuring cell bound bispecific and known concentrations. […] The dose response curves were then diluted down to that of background or no bispecific binding. The inflection point of this curve reflects the EC₅₀ point. The calculated EC₅₀ is determined by taking the ug/ml amount of bispecific antibody at the EC₅₀ point and converting it to a molarity value based on the MW of the bispecific antibody. Bispecific antibodies were normalized for protein concentration and then incubated with the same number of cells expressing either human or cyno PSMA. The MFI at each concentration was collected by flow cytometry and plotted as a function of concentration. Data was transformed via log 10 and then plotted. Nonlinear regression of binding curves was done to determine EC₅₀ s. These relative values were used for ranking PSMA binding to target cells.

[2] = molecular target: T3, human PSMA (prostate specific membrane antigen), full length (human, UniProt Q04609 1-750); assay: FACS, whole cell binding, LNCaP
T3 construct: On LNCaP or C4-2B cells (endogenous) or transduced HEK293F cells; also called FOLH1_HUMAN; hPSMA
Procedure: as §1

[3] = molecular target: T2, chimpanzee PSMA, full length; assay: FACS, whole cell binding, chimp PSMA HEK
Procedure: as §1

[4] = molecular target: T1, Cynomolgous monkey PSMA, full length; assay: FACS, whole cell binding, cyno PSMA HEK; calculated EC50
Procedure: as §1

T3 sequence (Q04609 whole entry): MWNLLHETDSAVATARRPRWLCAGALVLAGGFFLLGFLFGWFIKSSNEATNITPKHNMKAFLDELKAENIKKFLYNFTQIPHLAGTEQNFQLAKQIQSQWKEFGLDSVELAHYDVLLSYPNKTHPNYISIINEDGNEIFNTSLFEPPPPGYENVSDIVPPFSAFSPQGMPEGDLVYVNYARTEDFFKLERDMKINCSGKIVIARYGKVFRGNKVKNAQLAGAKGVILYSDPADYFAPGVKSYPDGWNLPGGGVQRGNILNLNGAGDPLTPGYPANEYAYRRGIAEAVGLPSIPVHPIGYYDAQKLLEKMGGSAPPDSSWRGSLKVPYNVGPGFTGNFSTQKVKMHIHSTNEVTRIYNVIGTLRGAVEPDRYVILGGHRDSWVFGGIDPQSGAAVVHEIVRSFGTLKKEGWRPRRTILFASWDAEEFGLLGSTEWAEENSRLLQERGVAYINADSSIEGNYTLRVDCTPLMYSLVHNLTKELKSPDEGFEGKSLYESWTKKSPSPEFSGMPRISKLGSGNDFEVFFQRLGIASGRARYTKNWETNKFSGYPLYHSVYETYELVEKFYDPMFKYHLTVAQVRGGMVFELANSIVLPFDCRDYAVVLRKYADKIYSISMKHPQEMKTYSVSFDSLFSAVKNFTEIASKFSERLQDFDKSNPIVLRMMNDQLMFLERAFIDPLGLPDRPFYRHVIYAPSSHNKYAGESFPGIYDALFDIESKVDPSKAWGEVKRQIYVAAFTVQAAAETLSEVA

Binder	EC50 [1]	EC50 [2]	EC50 [3]	EC50 [4]	binding result [2]
B1	1.4 µg/mL	2.07 µg/mL	3.24 µg/mL	9.9 nM	–
B2	18.2 µg/mL	–	1.1 µg/mL	128 nM	binds
B3	5.37 µg/mL	1.2 µg/mL	3.29 µg/mL	37.8 nM	–
B4	3.74 µg/mL	–	0.88 µg/mL	26.4 nM	–
B5	1.14 µg/mL	2.6 µg/mL	3.02 µg/mL	8 nM	–
B6	1.76 µg/mL	–	5.1 µg/mL	12.4 nM	binds
B7	0.688 µg/mL	1.16 µg/mL	1.01 µg/mL	4.8 nM	–
B8	2 µg/mL	123 µg/mL	3.33 µg/mL	14.1 nM	–

Reference: patent publication US20200024360A1 (Janssen / Centocor, published 2020)
